Measured values from the DeepSol protein solubility set.

Assay: soluble on expression in E. coli; label from the status in PepcDB or PDB records

Sequence	soluble on expression in E. coli
MVNFTVDEIRALMDRKRNIRNMSVIAHVDHGKSTLTDSLVSKAGIIAGSKAGETRFTDTRKDEQERCITIKSTAISLFFELEKKDLEFVKGENQFETVEVDGKKEKYNGFLINLIDSPGHVDFSSEVTAALRVTDGALVVVDCVSGVCVQTETVLRQAIAERIKPVLFMNKMDRALLELQLGAEELFQTFQRIVENINVIIATYGDDDGPMGPIMVDPSIGNVGFGSGLHGWAFTLKQFAEMYAGKFGVQVDKLMKNLWGDRFFDLKTKKWSSTQTDESKRGFCQFVLDPIFMVFDAVMNIKKDKTAALVEKLGIKLANDEKDLEGKPLMKVFMRKWLPAGDTMLQMIAFHLPSPVTAQKYRMEMLYEGPHDDEAAVAIKTCDPNGPLMMYISKMVPTSDKGRFYAFGRVFSGKVATGMKARIQGPNYVPGKKEDLYEKTIQRTILMMGRFIEPIEDIPSGNIAGLVGVDQYLVKGGTITTYKDAHNMRVMKFSVSPVVRVAVEAKNPADLPKLVEGLKRLAKSDPMVQCIFEESGEHIIAGAGELHLEICLKDLEEDHACIPLKKSDPVVSYRETVQSESNQICLSKSPNKHNRLHCTAQPMPDGLADDIEGGTVNARDEFKARAKILAEKYEYDVTEARKIWCFGPDGTGPNLLMDVTKGVQYLNEIKDSVVAGFQWATREGVLSDENMRGVRFNVHDVTLHADAIHRGGGQIIPTARRVFYASVLTAEPRLLEPVYLVEIQCPEAAVGGIYGVLNRRRGHVFEESQVTGTPMFVVKAYLPVNESFGFTADLRSNTGGQAFPQCVFDHWQVLPGDPLEAGTKPNQIVLDTRKRKGLKEGVPALDNYLDKM	not soluble
MVNQLIEPYGGTLVNLIDPEKREALKHEALSLPSLDLDWQQQCELEMLMTGAYSPLTGFMTRAQCARVESAQQLDDGSFWPSPITLTSRDRALADRRPGERLALRDGEGYMLAILTLSDVWKDGERWHLAGEVEGAALPPHPDFVSLRATPAELRALFVRRGWRRIIAWQARQPMHRAQYEFCLKSAIENEANLLLHPQVGGDITEAPAYFGLVRSFLAIRDRFPAATTQLSLLPAPPPEASGRALLLRAIVARNFGCSLLIAGGEHQPDGGDCRRGEDLTQNRVDPSVAERAEKIGVRLIAYPRMVYVEDRAEHLPEAEAPQGARLLTLSGEEFQRRMRAGLKIPEWYSFPEVLAELHRQTPPRERQGFTVFFTGLSGAGKSTLARALAARLMEMGGRCVTLLDGDIVRRHLSSELGFSKAHRDVNVRRIGFVASEITKNRGIAICAPIAPYRQTRRDVRAMIEAVGGFVEIHVATPIETCESRDRKGLYAKARAGLIPEFTGVSDPYEVPETPELAIDTTGLAIDEAVQQILLKLEHEGYLRLEHHHHHH	soluble
MVPEVIEIDGKQWRLIWHDEFEGSEVNKEYWTFEKGNGIAYGIPGWGNGELEYYTENNTYIVNGTLVIEARKEIITDPNEGTFLYTSSRLKTEGKVEFSPPVVVEARIKLPKGKGLWPAFWMLGSNIREVGWPNCGEIDIMEFLGHEPRTIHGTVHGPGYSGSKGITRAYTLPEGVPDFTEDFHVFGIVWYPDKIKWYVDGTFYHEVTKEQVEAMGYEWVFDKPFYIILNLAVGGYWPGNPDATTPFPAKMVVDYVRVYSFVSG	soluble
MVRGIRGAITVEEDTPEAIHQATRELLLKMLEANGIQSYEELAAVIFTVTEDLTSAFPAEAARQIGMHRVPLLSAREVPVPGSLPRVIRVLALWNTDTPQDRVRHVYLREAVRLRPDLESAQ	soluble
MVRIYTLTLAPSLDSATITPQIYPEGKLRCSAPVFEPGGGGINVARAIAHLGGTATAIFPAGGATGEHLVALLADENVPVSTVDAKDWTRQNLHVHVESSGEQYRFVMPGATLDDDEFRQLEEQVLEIESGAILVISGSLPPGVKVEKLTQLISAAQKQGIRCIIDSSGDALTAALALGDIELVKPNLKELSALVNRDLTQPDDVRKAAQELVQSGKARRVVVSLGPQGALGIDSENCIQVVPPPVKSQSTVGAGDSMVGAMTLKLAQDASLEEMVRFGVAAGSAATLNQGTRLCSRDDTQKIYAYLSAQ	not soluble
MVRLPPPTPPRKPNICGTSGNSNGINENIDTSTFSVSAAKALFESAKRPEVRNAAIAAAKNPFVRQTAKNVAQDEKARGAVLNAVKDPSGGNKISAAFAVADANRKSDSVPPPPPHRGGTSPGKLSGSHSAIRSQLENMHIGGSVMSSNSSTATPSYQSNSTSSYSSSAPVAPPPVPRHTQSIPSYSAPAISTPYGIAKFDYAPTQSDEMGLRIGDTVLISKKVDAEWFYGENQNQRTFGIVPSSYLDIKIPLKEAFTALPPRPAAPSGSSSGTYATAIYDYNSNEAGDLNFAVGSQIMVTARVNEEWLEGECFGRSGIFPSQFVDCPNLYQVPMKQSAPSSAPSYSHPITNNSGPKQTVTVSYDYDSGVASDLRLFEGDVITALEDIDAQWLLAECRGQQGMVPKTFLGPPYGSPKKAPSKGIAEIACAFSPKKAVATGDYHSEDPKHLYVTRGDHLLIVEDVDDYYYKGKLEAFKTLPAGILPKNIVKLEN	not soluble
MVRNRFIRKMKKNLFKSNHLSYLKSKWKVKITGQIKMDFDNLLNLEEQYYQEGFLEGQNENIKQSFLEGKQYGLQVGFQRFTLLGQMEGLCDVIESYGLHSPTLEKNIHTIRTLMKGLKMNNDDESVMEFERVLIKLKNKFRTILITLHRLVKDKRTPTVTFEVFEDVSRAIAGEIRGFVENEDIAKNKTKQNQAQSW	soluble
MVRRIAVFSLYNEHGIADDYVIFLLEKLREFVERIVVVSNGNLSKLSEIAIKASCDQLLVRENVGFDVWGYKTGIDAVGFDALSEYDELILLNDTCYGPLFPFSEMFSEMERRDCDFWGSAAHSKMTPNPFTGTGHLPRHLTANFIAVREKMLKSRAFKTYWENLPAIKTYIDAIMLHESQFTKHFTDLGYSAEAYVDPDKYGSHYPAFINVDETIINRFPLLKRRPFFHDPTFLNAQGIDLPRALRVLEETSDYDLNLIWRNVLRTSELRNLNTNAALMSVLPDERAKDDDAPSDYGKIAVCAHIYYTDMLEEILALTGNIPVPYDFIATTDTPDKKAEIEATLAKRPGVKNVIVRVVEKNRGRDMSSLFISLRDLLVDDRYDLVCRLHTKKSPQVQASRSNLFKRHMLENLLNTRGYVHNVLDMFHDNPSVGLAVPPVVHISYPTMGHAWFFNRPKVEETARLLNIKVKFDHDTPVAAYGTMFWFRPRALRKMFEHKWKWEDFNAEPNHVDGGLAHVLERLIAYAAQDAGYLEHHHHHH	soluble
MVRVDQNLFNEVMYLLDELSQDITVPKNVRKVAQDSKAKLSQENESLDLRCATVLSMLDEMANDPNVPAHGRTDLYTIISKLEALSKS	not soluble
MVRVGILGASGYGGAELLRLLKAHPEVELVGFSSRKYEGRPLEAAWPQLWDGRLFAAQEEVLERAEVVFLALPNGLSMEIAPEALKAGKRVVDLSGDFRLPPEVYEAWYRIPHKSPDLYREAVYGLPELHREELKGARLVANPGCYVTAATLALAPLAAEGVLKGAFVVGLSGVSGAGREAEGTAFAEVNENLKPYKAGGTHRHIPEMERNLGRILAQGRRVRTHGEARAVRLSFTPHLVPMTRGILVTAEAEVEGAWSQESLEALYRDFYAGEPFVRVLKGLPETKATLGSNRVDVRPLYEERTGRVLVFAALDNLVKGMAGQAVQNLNLMLGLPEETALPKEGLWP	soluble
MVSCQGTRPCIVNLLTMPSEDKLGEEISTRVINEYSKLKSACRPIIRPSGIREWTILAGVAAINRDGGANKIEILSIATGVKALPDSELQRSEGKILHDCHAEILALRGANTVLLNRIQNYNPSSGDKFIQHNDEIPARFNLKENWELALYISRLPCGDASMSFLNDNCKNDDFIKIEDSDEFQYVDRSVKTILRGRLNFNRRNVVRTKPGRYDSNITLSKSCSDKLLMKQRSSVLNCLNYELFEKPVFLKYIVIPNLEDETKHHLEQSFHTRLPNLDNEIKFLNCLKPFYDDKLDEEDVPGLMCSVKLFMDDFSTEEAILNGVRNGFYTKSSKPLRKHCQSQVSRFAQWELFKKIRPEYEGISYLEFKSRQKKRSQLIIAIKNILSPDGWIPTRTDDVK	not soluble
MVSQTERQHAIASLLAPTGAVSVGDLAEHFHVTTETVRRDLRIMESLGLLQRVHGGAISPEPMGTSPPRLKPALGKGMPPEPRVLELAETAVSLITPLARSIFLDSGLACTAIATVLGDPPEDARWTVVTSSPGAVIALSATDATSTVVLHGQVHGNCSSIIGSTAVDMISQLRADIAFVEVDAIQSDTSLCTFFPETIPIKQAMIKNAAFTVAVLSPRSPQDQELQLLKHPFSTLADFDALVTDDHTLDFPVLPDHNFQVVTPLEHHHHHH	soluble
MVTKAKQIREKESKVAEFKYKNLTQEEQDKLDAATFRRLLAHLDANKDVQNIDLMILAGFCRNCFSKWYKAEAENLSLDLDIDDARERVYGMTYDEWKQNHQPAATPEQLAAFEARQKK	not soluble
MVTPLTGTHEGVSCDGCAFTAFAGNRYKCLRCSDYDLCFSCFTTKNYGDQQTIADIPIHDESHPMQLILSSVDFDLVYQGDPTRHYDERKIVSFTCPYCNITGLTERQFGTHVLSQHPEAPGYSVICPLCIGNTEMEHIQSKETENLSVHWTEIHLHTMENLFRSTEPITTRPVQRRPMLARRGNRAGVSRTAAQGRPLQDEIGAEMAALLRNMGPDSVEDIRRFTEMMTVPLLPGIRSSQRLMTSTGDRPTVVVESAVTHQDPNVQQVIRPLATIPIYPPTSDESGDETPQPAADSADESEDDNDIQELDDMQPIVEDEALKKDEFWKTLKTRISEEDVDLILETMKSTAKVKEDIDDKMPVWTQRPLKRLANAAQVTTTSDSEGDPGWLPLSFETTPIRSTGCGGYWSDKRFLRPRKMQREQSVASSNAEIMEKAEIALALIRASCLHEPVFTDPTKPDIALKEALQHLRLGEKPAKMMEYQAAEELVNMPERDPITTGEMEVEIPDFTARGYGQIVDGNIPLGVVPEADEAITNSEDEEIVGGETSGDDEDEQEDDENDSQDSSVPEEINID	not soluble
MVVLHVKRGDESQFLLQAPGSTELEELTAQVARVYNGRLKVHRLCSEMEELAEHGVFLHPNMQGLTDEQIEELKLKDEWGEKCVPSGGSVFTKDEIGRRNGQAPNEKMKQVLKKTVEEAKAIVSKKQVEAGVFVTMEMVKDALDQLRGAVMIVYPMGLPPYDPIRMEFENKEDLSGTQAALEVIQESEAQLWWAAKELRRTKKLSDYVGKNEKTKIIVKIQQRGQGAPAREPVISSEEHKQLMLFYHRRQEELKKLEENDDDSCLNSPWADNTALKRHFHGVKDIKWRPR	soluble
MVVRTWRSMQERYNLIGSKCKTCGTVYFPARSVCPECRRKGELEDYKLNGKGKVYTYSVVYAAPKDFEKQSPYVIGIVELEEGTKITSQIDCEPEEVKIGMPVEATFRKIREDGCDGVISYGYKFVPTEQ	not soluble
MVYVAITIVRVPGPAFSYHCPDFVRLYIEAMGYSPTIAPARIRVWRNAITEQGFVAVCAIDDSSDNPAAIGEGIVGIGYGFTGRSEHWWDQQIHRGLAEQKCPPVARPYFELAELHVSPRAQGQGIGRSLLHALIKHCGHELILLSTPEVPDEKNAAFHLYRSCGFDDLLRNFMFEGDRRPFAVLQRKAHRN	not soluble
MVYYEIIKDIVFTYNLQFTHLIHNDRISEVNLGGVTMRSIITQICNGVLHGQSYQSGSNDLDKGNSEIFASSLFVHLNEQGKEIIKHKDSDDKIVIGYTKDGMAFQIVVDGFYGCERQAVFSFIDNYVLPLIDNFSLDLTRYPDSKKVTESLIHTIYSLRSKHAPLAEFTMSLCVTYQKDEQLFCAGFGIGDTGIAIKRNEGTIEQLVCHTEVDGFKDAFDNYSSANIDLVIERNSVFNTKVMPGDELVGYTYVPPMLEMTEKEFEVETVDGKKINKRIVRHLNLDPGNFDDKDPLFSQLLQVVKSKQKQLVEQAKETGQIQRFGDDFTVGRLVIPDQLLINQLRIHALSIGVSDGLLSYIKNENENKGFLGIYGFFTGADKNIEKATLYKNLIAKYQNNHFISLIILSALVSDSKTPLMTQYLVGYLDFPSKALLANKITELLLKELENPDMREILGSRLATDVIEELETKIIRYIHNPAGSDIHSTLNLWTADKIKAATNSSLTI	not soluble
